Measured values taken from paper PMC9814548, “Chemoenzymatic synthesis of 3-ethyl-2,5-dimethylpyrazine by L-threonine 3-dehydrogenase and 2-amino-3-ketobutyrate CoA ligase/L-threonine aldolase” (Communications Chemistry, 2021).

Experiments:
CnKBL = molecular target: T1, CnKBL (Cupriavidus necator, UniProt Q0K313); test: X-ray crystal structure, […] Å; format: binding; settings: covalent, Schiff base with K246
T1 construct: gene kbl; gene cloned in pET-28a (NcoI/XhoI), E. coli BL21(DE3), Ni-Sepharose and gel filtration; dimer; PLP on K246
T1 sequence (Q0K313 1-399): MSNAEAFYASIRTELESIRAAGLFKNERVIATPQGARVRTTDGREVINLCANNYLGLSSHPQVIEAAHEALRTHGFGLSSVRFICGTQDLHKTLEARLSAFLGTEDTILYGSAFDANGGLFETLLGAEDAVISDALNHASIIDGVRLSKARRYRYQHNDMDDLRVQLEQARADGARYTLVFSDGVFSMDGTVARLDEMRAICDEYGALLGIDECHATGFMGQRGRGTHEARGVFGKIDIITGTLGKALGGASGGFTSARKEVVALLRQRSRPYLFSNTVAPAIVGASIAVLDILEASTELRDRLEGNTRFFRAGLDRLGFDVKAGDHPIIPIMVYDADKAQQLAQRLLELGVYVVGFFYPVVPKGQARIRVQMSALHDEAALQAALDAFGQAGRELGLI

purified protein [1] = substrate: C[C@H](O)[C@H](N)C(=O)O; test: purified protein; format: biochemical, Cupriavidus necator; settings: 50 mM potassium phosphate pH 8.0, 30 °C, no CoA
purified protein [2] = substrate: CCC(O)C(N)C(=O)O; test: purified protein; format: biochemical, Cupriavidus necator; settings: 50 mM potassium phosphate pH 8.0, 30 °C, no CoA
purified protein [3] = substrate: NCC(=O)O; test: purified protein; format: biochemical, Cupriavidus necator; settings: 1 mM acetyl-CoA, 50 mM potassium phosphate pH 8.0, 30 °C
purified protein [4] = substrate: C[C@@H](O)[C@H](N)C(=O)O; test: purified protein; format: biochemical, Cupriavidus necator; settings: 50 mM potassium phosphate pH 8.0, 30 °C, no CoA
purified protein [5] = substrate: CC(=O)SCCNC(=O)CCNC(=O)[C@H](O)C(C)(C)COP(=O)(O)OP(=O)(O)OC[C@H]1O[C@@H](n2cnc3c(N)ncnc32)[C@H](O)[C@@H]1OP(=O)(O)O; test: purified protein; format: biochemical, Cupriavidus necator; settings: 100 mM Gly, 50 mM potassium phosphate pH 8.0, 30 °C

Cc1ncc(COP(=O)(O)O)c(C=O)c1O [PLP]
X-ray crystal structure, 1.8 Å (CnKBL): only PLP is coordinated at the site by forming a Schiff base with the side chain

B1: CnKBL (Cupriavidus necator H16) (protein)
chain: T1 sequence (Q0K313 1-399)
notes: gene cloned in pET-28a (NcoI/XhoI), E. coli BL21(DE3), Ni-Sepharose and gel filtration; dimer; PLP on K246
Km (purified protein [1]): 420 ± 86 µM | kcat (purified protein [1]): 0.000778 ± 4.33e-05 s⁻¹ | kcat/Km (purified protein [1]): 1.83 M⁻¹ s⁻¹ | Km (purified protein [2]): 200 ± 56 µM | kcat (purified protein [2]): 0.00123 ± 7.17e-05 s⁻¹ | kcat/Km (purified protein [2]): 6.17 M⁻¹ s⁻¹ | Km (purified protein [3]): 13900 ± 520 µM | kcat (purified protein [3]): 3.43 ± 0.036 s⁻¹ | Km (purified protein [4]): 1240 ± 110 µM | kcat (purified protein [4]): 0.00283 ± 0.0065 s⁻¹ | kcat/Km (purified protein [4]): 2.33 M⁻¹ s⁻¹ | Km (purified protein [5]): 242.7 ± 10.4 µM | kcat (purified protein [5]): 3.43 ± 0.036 s⁻¹
